The numbers were not newly measured in article PMC3556358, which cites them from elsewhere.

This series has as its target insulin receptor (Homo sapiens) (UniProt P06213).
Sequence of UniProt P06213 (P06213 763-1382): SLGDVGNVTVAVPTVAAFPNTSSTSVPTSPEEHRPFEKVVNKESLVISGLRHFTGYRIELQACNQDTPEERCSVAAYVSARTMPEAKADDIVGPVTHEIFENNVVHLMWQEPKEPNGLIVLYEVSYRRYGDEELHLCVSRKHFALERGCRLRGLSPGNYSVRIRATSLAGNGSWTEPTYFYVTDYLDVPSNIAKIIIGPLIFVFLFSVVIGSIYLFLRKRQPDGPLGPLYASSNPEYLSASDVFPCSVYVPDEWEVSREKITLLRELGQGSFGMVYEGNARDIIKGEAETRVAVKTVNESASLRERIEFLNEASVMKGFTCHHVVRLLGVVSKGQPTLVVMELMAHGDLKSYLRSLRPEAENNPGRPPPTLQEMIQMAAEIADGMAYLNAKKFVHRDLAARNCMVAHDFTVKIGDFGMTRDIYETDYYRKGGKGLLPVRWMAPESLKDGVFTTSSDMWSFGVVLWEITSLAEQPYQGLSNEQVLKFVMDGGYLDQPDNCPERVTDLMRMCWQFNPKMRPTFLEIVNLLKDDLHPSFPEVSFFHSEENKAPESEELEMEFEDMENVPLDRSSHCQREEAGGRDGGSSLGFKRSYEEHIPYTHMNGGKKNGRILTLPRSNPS

Sequence of insulin (P01308 90-110): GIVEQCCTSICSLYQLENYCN

As a reminder, the Kd is the concentration at which binding is half-saturated. Take insulin (from UniProt P01308): the Kd is 0.3 nM.
